B1: human glucocorticoid receptor (GR) (receptor)
chain: MDSKESLTPGREENPSSVLAQERGDVMDFYKTLRGGATVKVSASSPSLAVASQSDSKQRRLLVDFPKGSVSNAQQPDLSKAVSLSMGLYMGETETKVMGNDLGFPQQGQISLSSGETDLKLLEESIANLNRSTSVPENPKSSASTAVSAAPTEKEFPKTHSDVSSEQQHLKGQTGTNGGNVKLYTTDQSTFDILQDLEFSSGSPGKETNESPWRSDLLIDENCLLSPLAGEDDSFLLEGNSNEDCKPLILPDTKPKIKDNGDLVLSSPSNVTLPQVKTEKEDFIELCTPGVIKQEKLGTVYCQASFPGANIIGNKMSAISVHGVSTSGGQMYHYDMNTASLSQQQDQKPIFNVIPPIPVGSENWNRCQGSGDDNLTSLGTLNFPGRTVFSNGYSSPSMRPDVSSPPSSSSTATTGPPPKLCLVCSDEASGCHYGVLTCGSCKVFFKRAVEGQHNYLCAGRNDCIIDKIRRKNCPACRYRKCLQAGMNLEARKTKKKIKGIQQATTGVSQETSENPGNKTIVPATLPQLTPTLVSLLEVIEPEVLYAGYDSSVPDSTWRIMTTLNMLGGRQVIAAVKWAKAIPGFRNLHLDDQMTLLQYSWMFLMAFALGWRSYRQSSANLLCFAPDLIINEQRMTLPCMYDQCKHMLYVSSELHRLQVSYEEYLCMKTLLLLSSVPKDGLKSQELFDEIRMTYIKELGKAIVKREGNSSQNWQRFYQLTKLLDSMHEVVENLLNYCFQTFLDKTMSIEFPEMLAEIITNQIPKYSNGNIKKLLFHQK
notes: Endogenous protein in peripheral blood (lymphocyte) lysate of patients and controls
B2: human FK506 Binding Protein 51 (FKBP51) (other)
chain: MTTDEGAKNNEESPTATVAEQGEDITSKKDRGVLKIVKRVGNGEETPMIGDKVYVHYKGKLSNGKKFDSSHDRNEPFVFSLGKGQVIKAWDIGVATMKKGEICHLLCKPEYAYGSAGSLPKIPSNATLFFEIELLDFKGEDLFEDGGIIRRTKRKGEGYSNPNEGATVEIHLEGRCGGRMFDCRDVAFTVGEGEDHDIPIGIDKALEKMQREEQCILYLGPRYGFGEAGKPKFGIEPNAELIYEVTLKSFEKAKESWEMDTKEKLEQAAIVKEKGTVYFKGGKYMQAVIQYGKIVSWLEMEYGLSEKESKASESFLLAAFLNLAMCYLKLREYTKAVECCDKALGLDSANEKGLYRRGEAQLLMNEFESAKGDFEKVLEVNPQNKAARLQISMCQKKAKEHNERDRRIYANMFKKFAEQDAKEEANKAMGKKTSEGVTNEKGTDSQAMEEEKPEGHV
notes: as for B1

How the values were obtained:
[1] = molecular target: B2; assay: co-immunoprecipitation from human peripheral blood samples, densitometry, n=21
[2] = molecular target: B2; assay: co-immunoprecipitation from human peripheral blood samples, densitometry, n=22
[3] = molecular target: B1; assay: co-immunoprecipitation with anti-FKBP51 antibody from human peripheral blood protein, Western blot for GR

| GR-FKBP51 complex level, PTSD patients relative to trauma controls (Trauma = 1) [1] | GR-FKBP51 complex level, PTSD patients relative to healthy controls (CTRL = 1) [2] | binding result [3] | Binder |
| --- | --- | --- | --- |
| 1.46 fold of control | 1.41 fold of control |  | B1 |
|  |  | binds | B2 |
